# Measured values published in PMC8495455, “Discovery of a transdermally deliverable pentapeptide for activating AdipoR1 to promote hair growth” (EMBO Molecular Medicine, 2021).
# Values joined by “and” are separate entries in the source; they are usually repeats but may differ in a detail not shown here. Identical values can stand only once.
# What was measured:
# C57BL/6 (WT) mice [1] = assay: Mouse hair cycle modulation, hair cycle score, WT mice; format: in vivo; settings: topical
# Description: (§1) First, we topically applied P5 and minoxidil as a positive control (Messenger & Rundegren, [2004]) on wildtype (WT) mouse. […] Overall, the hair cycle score was higher in the P5‐treated mice than vehicle‐treated mice (Fig 4B). […] Collectively, P5 induces anagen hair cycle in vivo.
# (§2) For the hair cycle modulation experiment, Adipoq ^−/− (stock #008195; JAX) (Ma et al, [2002]), Adipor1 ^−/− (Yamauchi et al, [2007]; Okada‐Iwabu et al, [2013]), or C57BL/6 (KOATECH) female mice was used (Müller‐Röver et al, [2001]). They were housed (up to four animals per cage; 23 ± 2°C, 8:00–20:00, 12 h/12 h light/dark cycle). Mice were fed a standard chow diet and provided food and water ad libitum. Mice were randomly allocated and shaved dorsally at 7.5 weeks of age. Only mice in telogen were included for the further experiments (Müller‐Röver et al, [2001]). From 8 weeks of age, the shaved dorsal area was treated with vehicle control (ethanol and polyethylene glycol, 30% and 70% v/v), P5 (0.1 mM), or minoxidil (3%) every day. The mouse hair growth score (a value from 0 to 100 based on the skin pigmentation and hair shaft density) was monitored and documented at designated days with the experimenters being blind to the conditions, following a previous study (Chai et al, [2019]). A higher score corresponds to a transition from telogen to anagen. On day 35, we obtained dorsal cutaneous tissue for histological analysis: anagen induction scores (calculated using an assigned arbitrary score; telogen = 1, anagen I–VI = 2–7) (Müller‐Röver et al, [2001]).
# C57BL/6 (WT) mice [2] = assay: Mouse hair cycle modulation, histology and anagen induction score, WT mice; format: in vivo
# Description: as §1
# (§3) Paraffin‐embedded mouse cutaneous back tissue was sectioned (4 μm thickness) and stained with hematoxylin and eosin. For IF staining, human ORS cells cultured in FiTC‐P5, sectioned paraffin‐embedded human HFs (7 μm thickness), and sectioned paraffin‐embedded mouse cutaneous dorsal tissue or human skin tissue (5 μm thickness) were incubated at 4°C overnight with the following primary antibodies diluted in the diluent reagent (Invitrogen): phospho‐AMPK (#2535, 1:100; Cell Signaling), Ki‐67 (#M7240, 1:200; Dako), versican (#ab177480, 1:200; Abcam), or AdipoR1 antibody (#ab126611, 1:200; Abcam). After three washes with PBS, the slides were incubated with the secondary Alexa Fluor 488‐labeled anti‐mouse or rabbit IgG antibody (#ab150077, #ab150113, 1:200; Invitrogen), or Alexa Fluor 594‐labeled anti‐rabbit IgG antibody (#a11012, 1:200; Invitrogen) at 25°C for 1 h. Nuclei were counterstained with 4′,6‐diamidino‐2‐phenylindole (DAPI; #D1306, 1:1,000; Invitrogen). Microscopic observations were performed with a Nikon Eclipse Ci‐L microscope (Nikon). IF intensity was observed and recorded with a Nikon Eclipse Ni‐E fluorescence microscope (Nikon).
# as §2
# [3] = tested on: AMPK phosphorylation in DP cells; assay: Western blot p-AMPK, DP cells; format: cell-based, human; settings: P5 0 - 50 μM, APN 2.5 μg/ml
# Description: (§4) Following the confirmation of the molecular interaction between AdipoR1 and P5, we evaluated the activation of the intracellular signaling pathway by P5. We investigated whether APN treatment on ORS and DP cells could activate AMPK or ERK signaling pathways, which are previously known to be downstream effectors of AdipoR1 (Mao et al, [2006]; Deepa & Dong, [2009]; Shibata et al, [2012]). […] Next, for determination of whether both P5 and APN mediates the phosphorylation of AMPK through AdipoR1 in ORS and DP cells, the cells were transfected with AdipoR1 siRNA (Appendix Fig S1). […] Collectively, P5 activates AMPK signaling pathway through AdipoR1 in ORS and DP cells in vitro.
# (§5) Human ORS and DP cells or skin tissue were lysed (RIPA lysis buffer; #20‐188; Merck Millipore). The obtained protein was then separated by 8% SDS–PAGE and transferred to a polyvinylidene fluoride membrane (Amersham). The protein transferred membranes were incubated overnight with the specific antibodies. […] Antibody‐antigen complexes detected by enhanced chemiluminescent substrate (Thermo Fisher) were captured and quantified by Amersham imager 680 systems (GE Healthcare).
# [4] = tested on: AMPK phosphorylation through AdipoR1 in ORS cells; assay: Western blot p-AMPK in AdipoR1 siRNA-transfected ORS cells; format: cell-based, human
# Description: as §4
# (§6) All transfections were performed using Lipofectamine 2000 following the manufacturer’s instructions (#11668019; Thermo Fisher). Human DP and ORS cells were cultured without antibiotics until reaching 50% confluency. AdipoR1 or scrambled siRNA (Bioneer) was used. The culture medium was changed 6 h after transfection, and the cells were incubated for another 24 h before subsequent analyses.
# (§7) Human ORS and DP cells or skin tissue were lysed (RIPA lysis buffer; #20‐188; Merck Millipore). […] Antibody‐antigen complexes detected by enhanced chemiluminescent substrate (Thermo Fisher) were captured and quantified by Amersham imager 680 systems (GE Healthcare).
# [5] = tested on: matrix cells of human HF bulbs; assay: IF staining Ki-67 of ex vivo cultured HF bulb; format: cell-based; settings: APN 10μg/ml, ex vivo cultured HF bulb; individual HFs, n = 8
# Description: We next investigated whether P5 can reproduce the effects of APN on hair growth promotion ex vivo (Won et al, [2012]) using ex vivo human HF organ culture model. […] The Ki‐67‐positive cell portion of the matrix area in the P5‐treated HFs was higher than that in the vehicle‐treated group (Fig 3E).
# as §3
# human scalp HFs = settings: ref Won et al, [2012]; cited from earlier work
# Description: However, it is not well understood about the underlying action mechanism of APN on hair growth promotion and how to utilize this endogenous protein as clinically applicable drug forms (Otvos, [2019]).
# [6] = tested on: ERK phosphorylation in ORS cells; assay: Western blot p-ERK1/2, ORS cells; format: cell-based, human
# Description: as §4, §5
# [7] = tested on: AMPK phosphorylation through AdipoR1 in DP cells; assay: Western blot p-AMPK in AdipoR1 siRNA-transfected DP cells; format: cell-based, human
# Description: as §4, §6, §7
# [8] = tested on: ERK phosphorylation in DP cells; assay: Western blot p-ERK1/2, DP cells; format: cell-based, human
# Description: as §4, §5
# [9] = tested on: AMPK phosphorylation in ORS cells; assay: Western blot p-AMPK, ORS cells; format: cell-based, human; settings: P5 0 - 50 μM, APN 2.5 μg/ml
# Description: as §4, §5
Molecule,Gross morphology of dorsum (C57BL/6 (WT) mice [1]; day 14),Gross morphology of dorsum (C57BL/6 (WT) mice [1]; day 35),Histological examination of HFs (C57BL/6 (WT) mice [2]; H&E),Anagen induction scores vs vehicle (C57BL/6 (WT) mice [2]; One-way ANOVA with Tukey's test),"Phosphorylation of AMPK, DP cells [3]","p-AMPK intensity after AdipoR1 siRNA transfection, ORS cells [4]",Numbers of Ki-67-positive cells normalized to DAPI-stained cells [5],Hair growth ex vivo (human scalp HFs),"Phosphorylation of ERK, ORS cells [6]","p-AMPK intensity after AdipoR1 siRNA transfection, DP cells [7]","Phosphorylation of ERK, DP cells [8]","Phosphorylation of AMPK, ORS cells [9]"
"Nc1cc(N2CCCCC2)nc(N)[n+]1[O-] [minoxidil, reference compound]",obvious pigmentation and hair,manifested a black hair coat,anagen HFs were noticeable,significantly higher,,,,,,,,
"APN: adiponectin protein, positive control (protein, UniProt Q15848 19-244, looked up) Adiponectin: ETTTQGPGVLLPLPKGACTGWMAGIPGHPGHNGAPGRDGRDGTPGEKGEKGDPGLIGPKGDIGETGVPGAEGPRGFPGIQGRKGEPGEGAYVYRSAFSVGLETYVTIPNMPIRFTKIFYNQQNHYDGSTGKFHCNIPGLYYFAYHITVYMKDVKVSLFKKDKAMLFTYDQYQENNVDQASGSVLLHLEVGDQVWLQVYGEGERNGLYADNDNDSTFTGFLLYHDTN",,,,,phosphorylation of AMPK was observed,intensity was reduced,0.29 and 0.31 and 0.23 and 0.25 and 0.22 and 0.21 and 0.35 and 0.28,promotes hair growth ex vivo effectively,no effect on the phosphorylation of ERK,intensity was reduced,no effect on the phosphorylation of ERK,phosphorylation of AMPK was observed
